Experimental data published in PMC8764033, “Single-molecule analysis of specificity and multivalency in binding of short linear substrate motifs to the APC/C” (Nature Communications, 2022).
Values joined by “and” are separate entries in the source; they are usually repeats but may differ in a detail not shown here. Equal entries are not always repeated. Where two headings read alike, the source gives them in different places.

How the values were obtained:
APC/C^apo = biological target: T1, APC/C^apo (Saccharomyces cerevisiae, UniProt P38042+P53068); experiment: SMOR assay, yeast APC/C^apo (no activator); type: binding; details: Supplementary Table 1, single movie
T1 construct: APC/C was purified from yeast cells; made in house; host or cells: S. cerevisiae W303 strain NHY13 (Cdc16-TAP, Apc1-GFP, cdh1 deleted)
Experimental: Yeast strains were derivatives of W303 and are listed in Supplementary Table 2. For APC/C purification, we used a strain carrying Cdc16-TAP and lacking Cdh1 (DOM1126); in most experiments, the strain also carried Apc1-GFP (NHY13). Yeast were grown in YPD media to OD600 = 0.8, collected and flash-frozen. Cells were lysed by bead beating in lysis buffer A (50 mM HEPES pH 7.5, 150 mM KCl, 10% glycerol, 0.2% Triton X-100, 63 µM B-glycerophosphate, 48 µM sodium fluoride, 1 µg ml^−1 pepstatin A, 1 µg ml^−1 leupeptin, 1 µg ml^−1 aprotinin, 1 mM PMSF, 1 mM DTT, 0.5 mM EDTA) and APC/C was purified using magnetic IgG beads. The beads were washed using wash buffer A (20 mM HEPES pH 7.5, 150 mM KCl, 10% Glycerol, 0.05% Triton X-100). After incubation with purified Cdh1 or Cdc20, the APC/C was cleaved off the beads with TEV protease in wash buffer A with 0.05% Tween-20 (for single-molecule studies) or 0.05% Triton X-100 (for ensemble assays such as ubiquitylation) and used immediately. […]
Microscopy was performed with a Nikon Eclipse TE2000-E with Perfect Focus with a 100 × 1.49na oil, Apo TIRF DIC N2, 0.13-0.2, WD0.12 objective. Movies were recorded using the Andor iXon DU-897E-CSO. […]

APC/C^Cdh1 = biological target: T2, APC/C^Cdh1 (Saccharomyces cerevisiae, UniProt P53068+P53197); type: binding; details: for mean dwell time: representative of two independent experiments, ± SE, ligand ≤1 nM, buffer C + BSA
T2 construct: APC/C was purified from yeast cells; made in house; host or cells: APC/C from S. cerevisiae W303 strain NHY13 (Cdc16-TAP, Apc1-GFP, cdh1 deleted); Cdh1 from Sf9 (baculovirus)
T2 sequence (P53068 whole entry, looked up): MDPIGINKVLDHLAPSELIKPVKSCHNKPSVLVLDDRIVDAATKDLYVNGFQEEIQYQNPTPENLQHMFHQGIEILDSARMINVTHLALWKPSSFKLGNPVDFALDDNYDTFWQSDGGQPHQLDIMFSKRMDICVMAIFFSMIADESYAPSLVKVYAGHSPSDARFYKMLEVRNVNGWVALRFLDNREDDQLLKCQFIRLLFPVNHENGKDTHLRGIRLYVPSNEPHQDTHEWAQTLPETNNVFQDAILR
T2 sequence (P53197 whole entry, looked up): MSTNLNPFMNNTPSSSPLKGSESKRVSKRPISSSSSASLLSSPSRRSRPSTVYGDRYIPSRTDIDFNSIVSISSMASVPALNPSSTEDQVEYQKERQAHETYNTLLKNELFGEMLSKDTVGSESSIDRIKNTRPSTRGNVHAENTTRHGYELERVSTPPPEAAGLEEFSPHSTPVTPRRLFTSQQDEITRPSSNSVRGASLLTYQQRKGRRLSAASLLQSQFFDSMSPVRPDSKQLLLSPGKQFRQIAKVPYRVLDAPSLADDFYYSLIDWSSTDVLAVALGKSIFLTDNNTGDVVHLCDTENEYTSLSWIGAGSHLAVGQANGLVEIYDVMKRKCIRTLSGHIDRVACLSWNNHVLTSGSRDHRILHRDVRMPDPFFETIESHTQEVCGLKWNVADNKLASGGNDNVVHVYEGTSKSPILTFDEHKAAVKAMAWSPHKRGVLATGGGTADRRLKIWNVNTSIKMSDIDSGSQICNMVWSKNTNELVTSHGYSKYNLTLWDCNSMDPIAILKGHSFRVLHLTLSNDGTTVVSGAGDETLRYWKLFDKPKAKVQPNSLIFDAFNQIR
Experimental: Yeast strains were derivatives of W303 and are listed in Supplementary Table 2. For APC/C purification, we used a strain carrying Cdc16-TAP and lacking Cdh1 (DOM1126); in most experiments, the strain also carried Apc1-GFP (NHY13). Yeast were grown in YPD media to OD600 = 0.8, collected and flash-frozen. Cells were lysed by bead beating in lysis buffer A (50 mM HEPES pH 7.5, 150 mM KCl, 10% glycerol, 0.2% Triton X-100, 63 µM B-glycerophosphate, 48 µM sodium fluoride, 1 µg ml^−1 pepstatin A, 1 µg ml^−1 leupeptin, 1 µg ml^−1 aprotinin, 1 mM PMSF, 1 mM DTT, 0.5 mM EDTA) and APC/C was purified using magnetic IgG beads. The beads were washed using wash buffer A (20 mM HEPES pH 7.5, 150 mM KCl, 10% Glycerol, 0.05% Triton X-100). After incubation with purified Cdh1 or Cdc20, the APC/C was cleaved off the beads with TEV protease in wash buffer A with 0.05% Tween-20 (for single-molecule studies) or 0.05% Triton X-100 (for ensemble assays such as ubiquitylation) and used immediately.
For all SMOR experiments, 24 × 50 mm high precision glass coverslips (Bioscience Tools) and drilled microscope slides were passivated with a combination of PEG and PEG-biotin (coverslips) or PEG only (slides) following a previously published protocol for SiMPull[31]. Reaction chambers (~20 µl) were created using double-sided tape and epoxy. Protein was immobilized on the surface with 0.2 mg ml^−1 NeutrAvidin in buffer C (20 mM HEPES pH 7.5, 150 mM KCl, 10% glycerol, 0.05% Tween-20, 1 mM DTT). Excess NeutrAvidin was washed away and incubated with either biotin-conjugated mouse monoclonal anti-Strep-Tag II antibody (LSBio, Cat. No. LS-C203632-100) or biotin-conjugated rabbit polyclonal anti-GFP antibody (Rockland, Cat. No. 600-406-215) diluted in buffer C + BSA (0.1 mg ml^−1; Molecular Biology Grade Bovine Serum Albumin). Activator WD40 and activated APC/C (typically 50 µl containing about 65 ng APC/C, of which only a small fraction is immobilized on the glass) were immobilized using anti-Strep-Tag II, while APC/C alone was immobilized with anti-GFP. SMOR results were similar when performed in the buffer (wash buffer B) used in polarization anisotropy.
To capture dynamic protein–protein interactions, dye-labeled substrate diluted in buffer C + BSA was added to the chamber containing immobilized proteins. Interactions were imaged by TIRF microscopy as described below. For optimal signal-to-noise ratio, peptide concentration was no greater than 1 nM. Protein substrates included Hsl1 aa 667–872 and a C-terminal HaloTag followed by a TAP tag, and were produced by translation in rabbit reticulocyte lysates using TnT Quick Coupled Transcription/Translation System (Promega) (see Supplementary Table 5 for plasmids). Protein was purified with magnetic IgG beads and labeled on the bead with JF549 or JF646 dye so that unbound dye could be washed away. Purified dye-labeled protein was then cleaved from the beads using TEV protease. Before adding substrate to the reaction chamber, oxygen scavenging reagents were added (10 nM protocatechuate-3,4-dioxygenase, 2.5 mM protocatechuic acid, and 1 mM Trolox)[41]. A detailed description of the SMOR analysis pipeline is found in Supplementary Note 1.
Microscopy was performed with a Nikon Eclipse TE2000-E with Perfect Focus with a 100 × 1.49na oil, Apo TIRF DIC N2, 0.13-0.2, WD0.12 objective. Movies were recorded using the Andor iXon DU-897E-CSO. For visualizing GFP-tagged protein, a 491 nm laser was used with an ET525/50 (Chroma) filter for emission. For visualizing JF549-labeled substrate, a 561 nm laser was used with an ET595/50 (Chroma) filter for emission. For visualizing all Cy5-labeled peptides and JF646-labeled substrates, a 640 nm laser was used with an ET685/70 filter (Chroma) for emission. Initially, for each substrate tested, we acquired movies at multiple intervals to deduce the optimal interval to decrease bleaching. µManager version 2.0 was used to control the microscope and record time-lapse movies.

B1: Hsl1^Halo KEN & D: Hsl1 fragment (amino acids 667–872) with C-terminal HaloTag, JF549-labeled (protein)
chain: QNSASKRSLYSLQSISKRSLNLNDLLVFDDPLPSKKPASENVNKSEPHSLESDSDFEILCDQILFGNALDRILEEEEDNEKERDTQRQRQNDTKSSADTFTISGVSTNKENEGPEYPTKIEKNQFNMSYKPSENMSGLSSFPIFEKENTLSSSYLEEQKPKRAALSDITNSFNKMNKQEGMRIEKKIQREQLQKKNDRPSPLKPIQ
modifications: JF549 or JF646 dye covalently bound to the HaloTag; left off: HaloTag, C-terminal, kept | TAP, C-terminal, cleaved
notes: Hsl1 fragment (amino acids 667–872) with C-terminal HaloTag, JF549-labeled
Dwell Time (in words) (APC/C^apo): no binding
Dwell Time (APC/C^Cdh1): 300 s
fold increase in affinity/dwell time, APC/C^Cdh1 vs Cdh1 alone (APC/C^Cdh1): 6 fold
Dwell Time (APC/C^Cdh1; Supplementary Table 1, replicate 1 (movie listed first)): 321.161 ± 14.186 s
Dwell Time (APC/C^Cdh1; Supplementary Table 1, replicate 2 (movie listed second)): 268.262 ± 10.979 s
mean dwell time (APC/C^Cdh1): 321 ± 14 s and 321 s
mean dwell time (APC/C^Cdh1; listed as Hsl1): over 300 s
mean dwell time (APC/C^Cdh1; listed as Hsl1 fragment): 321 ± 14 s
